What all share (settings): remark: other sources report otherwise
Experiment [1] addresses T1, RBD-FH, monomeric RBD (332-534) with a FLAG peptide and an 8xHis-tag at the C-terminus (SARS-CoV-2), P0DTC2.
Experiment [2] deals with RBD-Fc, Wuhan strain (WA1) (SARS-CoV-2; human), P0DTC2.
Experiment [3] addresses T1, RBD-FH, monomeric RBD (332-534) with a …. This is another data set of the same source.

Like-named read-outs stand apart in the source and are kept apart here.

B1: Nb 1.10 (VHH)
VHH: QVQLVESGGGSVQAGGSLRLSCAASGYTYSTCRKGWYRQAPGKERELVASITADGATYYLDSVKGRLTISQDNAKNTVYLQMNSLKPEDTAVYYCAASVKDFTCTFNSWGQGTQVTVSS
As to B1, in experiment [1], the Kd (in general, the free concentration of one partner at which half of the binding sites on the other are occupied at equilibrium, for simple one-to-one binding) was 3.96 nM; the koff (as a rule, a measure of how fast the partners let go of each other) came to 0.00137 s⁻¹; the kon – broadly, the second-order rate constant of association – came out at 345000 M⁻¹ s⁻¹.

B2: hcAb 1.10 (Fc fusion)
heavy: B1 VHH
With B2, the % inhibition of RBD binding to hACE2 in experiment [2] is over 95%. In experiment [3], this molecule had a Kd of 0.35 nM, a koff of 0.000237 s⁻¹ and a kon of 679000 M⁻¹ s⁻¹.

B3: hcAb 2.15 (Fc fusion)
heavy: QVQLVESGGGSVQAGGSLKLSCAASGYASWARKCIGWFRQAPGQEREGVAAIFDFDGSTYYSDSVKGRFTISGDNAKNTVSLQMNSLLPKDTAVYYCTVAFGTCDNWYRGRGDYWGQGTQVTVSS
In experiment [2], B3 showed a % inhibition of RBD binding to hACE2 of over 95%. In experiment [3], the Kd came to 0.08 nM, the koff came to 0.00012 s⁻¹ and the kon is 1.42e+06 M⁻¹ s⁻¹.

B4: Nb 2.15 (VHH)
VHH: B3 heavy
In experiment [1], B4 registered a Kd of 0.39 nM, a koff of 0.000778 s⁻¹ and a kon of 2.02e+06 M⁻¹ s⁻¹.

The record behind these values is patent publication EP4242225A1.
